Reference: US20140213531A1 (POLYPHOR, published 2014)
Bridges are numbered along the chain shown (N, C = ends). [ ]: non-standard residue; d: D form. Chg = N[C@H](C(=O)O)C1CCCCC1

T1: CathepsinG, from human neutrophils (human, UniProt P08311 21-244)
T1 sequence (looked up): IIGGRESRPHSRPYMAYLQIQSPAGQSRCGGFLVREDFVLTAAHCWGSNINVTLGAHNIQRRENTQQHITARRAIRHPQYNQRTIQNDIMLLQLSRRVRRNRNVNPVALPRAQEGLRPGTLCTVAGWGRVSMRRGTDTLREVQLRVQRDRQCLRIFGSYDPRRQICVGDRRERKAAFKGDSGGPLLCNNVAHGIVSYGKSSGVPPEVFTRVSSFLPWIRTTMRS

B1: Example 70 (peptide)
peptide: XCTKSDPPXCN
HELM: PEPTIDE1{[Nc1ccc(C[C@H](N[*:1])C(=O)[*:2])cc1].C.T.K.S.D.P.P.[Cha].C.N.[dP].P}$PEPTIDE1,PEPTIDE1,2:R3-10:R3|PEPTIDE1,PEPTIDE1,1:R1-13:R2$$$V2.0
SMILES: C[C@@H](O)[C@@H]1NC(=O)[C@@H]2CSSC[C@H](NC(=O)[C@H](CC3CCCCC3)NC(=O)[C@@H]3CCCN3C(=O)[C@@H]3CCCN3C(=O)[C@H](CC(=O)O)NC(=O)[C@H](CO)NC(=O)[C@H](CCCCN)NC1=O)C(=O)N[C@@H](CC(N)=O)C(=O)N1CCC[C@@H]1C(=O)N1CCC[C@H]1C(=O)N[C@@H](Cc1ccc(N)cc1)C(=O)N2
B2: Example 62 (peptide)
peptide: XCTKSDPPICS
HELM: PEPTIDE1{[O=C([C@H](Cc1cccc2ccccc12)N[*:1])[*:2]].C.T.K.S.D.P.P.I.C.S.[dP].P}$PEPTIDE1,PEPTIDE1,2:R3-10:R3|PEPTIDE1,PEPTIDE1,1:R1-13:R2$$$V2.0
SMILES: CC[C@H](C)[C@@H]1NC(=O)[C@@H]2CCCN2C(=O)[C@@H]2CCCN2C(=O)[C@H](CC(=O)O)NC(=O)[C@H](CO)NC(=O)[C@H](CCCCN)NC(=O)[C@H]([C@@H](C)O)NC(=O)[C@@H]2CSSC[C@H](NC1=O)C(=O)N[C@@H](CO)C(=O)N1CCC[C@@H]1C(=O)N1CCC[C@H]1C(=O)N[C@@H](Cc1cccc3ccccc13)C(=O)N2
B3: Example 27 (peptide)
peptide: XCTKSDPPICN
HELM: PEPTIDE1{[O=C([C@H](CCc1ccccc1)N[*:1])[*:2]].C.T.K.S.D.P.P.I.C.N.[dP].P}$PEPTIDE1,PEPTIDE1,2:R3-10:R3|PEPTIDE1,PEPTIDE1,1:R1-13:R2$$$V2.0
SMILES: CC[C@H](C)[C@@H]1NC(=O)[C@@H]2CCCN2C(=O)[C@@H]2CCCN2C(=O)[C@H](CC(=O)O)NC(=O)[C@H](CO)NC(=O)[C@H](CCCCN)NC(=O)[C@H]([C@@H](C)O)NC(=O)[C@@H]2CSSC[C@H](NC1=O)C(=O)N[C@@H](CC(N)=O)C(=O)N1CCC[C@@H]1C(=O)N1CCC[C@H]1C(=O)N[C@@H](CCc1ccccc1)C(=O)N2
B4: Example 66 (peptide)
peptide: XCTKSDPPXCY
HELM: PEPTIDE1{[O=C([C@@H](N[*:1])C1CCCCC1)[*:2]].C.T.K.S.D.P.P.[Cha].C.Y.[dP].P}$PEPTIDE1,PEPTIDE1,2:R3-10:R3|PEPTIDE1,PEPTIDE1,1:R1-13:R2$$$V2.0
SMILES: C[C@@H](O)[C@@H]1NC(=O)[C@@H]2CSSC[C@H](NC(=O)[C@H](CC3CCCCC3)NC(=O)[C@@H]3CCCN3C(=O)[C@@H]3CCCN3C(=O)[C@H](CC(=O)O)NC(=O)[C@H](CO)NC(=O)[C@H](CCCCN)NC1=O)C(=O)N[C@@H](Cc1ccc(O)cc1)C(=O)N1CCC[C@@H]1C(=O)N1CCC[C@H]1C(=O)N[C@@H](C1CCCCC1)C(=O)N2
B5: Example 29 (peptide)
peptide: XCTKSDPPICD
HELM: PEPTIDE1{[O=C([C@H](CCc1ccccc1)N[*:1])[*:2]].C.T.K.S.D.P.P.I.C.D.[dP].P}$PEPTIDE1,PEPTIDE1,2:R3-10:R3|PEPTIDE1,PEPTIDE1,1:R1-13:R2$$$V2.0
SMILES: CC[C@H](C)[C@@H]1NC(=O)[C@@H]2CCCN2C(=O)[C@@H]2CCCN2C(=O)[C@H](CC(=O)O)NC(=O)[C@H](CO)NC(=O)[C@H](CCCCN)NC(=O)[C@H]([C@@H](C)O)NC(=O)[C@@H]2CSSC[C@H](NC1=O)C(=O)N[C@@H](CC(=O)O)C(=O)N1CCC[C@@H]1C(=O)N1CCC[C@H]1C(=O)N[C@@H](CCc1ccccc1)C(=O)N2
B6: Example 34 (peptide)
peptide: XCTKSDPPICT
HELM: PEPTIDE1{[Cha].C.T.K.S.D.P.P.I.C.T.[dP].P}$PEPTIDE1,PEPTIDE1,2:R3-10:R3|PEPTIDE1,PEPTIDE1,1:R1-13:R2$$$V2.0
SMILES: CC[C@H](C)[C@@H]1NC(=O)[C@@H]2CCCN2C(=O)[C@@H]2CCCN2C(=O)[C@H](CC(=O)O)NC(=O)[C@H](CO)NC(=O)[C@H](CCCCN)NC(=O)[C@H]([C@@H](C)O)NC(=O)[C@@H]2CSSC[C@H](NC1=O)C(=O)N[C@@H]([C@@H](C)O)C(=O)N1CCC[C@@H]1C(=O)N1CCC[C@H]1C(=O)N[C@@H](CC1CCCCC1)C(=O)N2
B7: Example 45 (peptide)
peptide: XCTKSDPPICN
HELM: PEPTIDE1{[O=C([C@H](Cc1ccccc1Cl)N[*:1])[*:2]].C.T.K.S.D.P.P.I.C.N.[dP].P}$PEPTIDE1,PEPTIDE1,2:R3-10:R3|PEPTIDE1,PEPTIDE1,1:R1-13:R2$$$V2.0
SMILES: CC[C@H](C)[C@@H]1NC(=O)[C@@H]2CCCN2C(=O)[C@@H]2CCCN2C(=O)[C@H](CC(=O)O)NC(=O)[C@H](CO)NC(=O)[C@H](CCCCN)NC(=O)[C@H]([C@@H](C)O)NC(=O)[C@@H]2CSSC[C@H](NC1=O)C(=O)N[C@@H](CC(N)=O)C(=O)N1CCC[C@@H]1C(=O)N1CCC[C@H]1C(=O)N[C@@H](Cc1ccccc1Cl)C(=O)N2
B8: Example 43 (peptide)
peptide: XCTKSDPPICD
HELM: PEPTIDE1{[Nle].C.T.K.S.D.P.P.I.C.D.[dP].P}$PEPTIDE1,PEPTIDE1,2:R3-10:R3|PEPTIDE1,PEPTIDE1,1:R1-13:R2$$$V2.0
SMILES: CCCC[C@@H]1NC(=O)[C@@H]2CCCN2C(=O)[C@H]2CCCN2C(=O)[C@H](CC(=O)O)NC(=O)[C@@H]2CSSC[C@H](NC1=O)C(=O)N[C@@H]([C@@H](C)O)C(=O)N[C@@H](CCCCN)C(=O)N[C@@H](CO)C(=O)N[C@@H](CC(=O)O)C(=O)N1CCC[C@H]1C(=O)N1CCC[C@H]1C(=O)N[C@@H]([C@@H](C)CC)C(=O)N2
B9: Example 35 (peptide)
peptide: XCTKSDPPICD
HELM: PEPTIDE1{[Cha].C.T.K.S.D.P.P.I.C.D.[dP].P}$PEPTIDE1,PEPTIDE1,2:R3-10:R3|PEPTIDE1,PEPTIDE1,1:R1-13:R2$$$V2.0
SMILES: CC[C@H](C)[C@@H]1NC(=O)[C@@H]2CCCN2C(=O)[C@@H]2CCCN2C(=O)[C@H](CC(=O)O)NC(=O)[C@H](CO)NC(=O)[C@H](CCCCN)NC(=O)[C@H]([C@@H](C)O)NC(=O)[C@@H]2CSSC[C@H](NC1=O)C(=O)N[C@@H](CC(=O)O)C(=O)N1CCC[C@@H]1C(=O)N1CCC[C@H]1C(=O)N[C@@H](CC1CCCCC1)C(=O)N2
B10: Example 41 (peptide)
peptide: XCTKSDPPICN
HELM: PEPTIDE1{[Nle].C.T.K.S.D.P.P.I.C.N.[dP].P}$PEPTIDE1,PEPTIDE1,2:R3-10:R3|PEPTIDE1,PEPTIDE1,1:R1-13:R2$$$V2.0
SMILES: CCCC[C@@H]1NC(=O)[C@@H]2CCCN2C(=O)[C@H]2CCCN2C(=O)[C@H](CC(N)=O)NC(=O)[C@@H]2CSSC[C@H](NC1=O)C(=O)N[C@@H]([C@@H](C)O)C(=O)N[C@@H](CCCCN)C(=O)N[C@@H](CO)C(=O)N[C@@H](CC(=O)O)C(=O)N1CCC[C@H]1C(=O)N1CCC[C@H]1C(=O)N[C@@H]([C@@H](C)CC)C(=O)N2
B11: Example 32 (peptide)
peptide: XCTKSDPPICY
HELM: PEPTIDE1{[Nc1ccc(C[C@H](N[*:1])C(=O)[*:2])cc1].C.T.K.S.D.P.P.I.C.Y.[dP].P}$PEPTIDE1,PEPTIDE1,2:R3-10:R3|PEPTIDE1,PEPTIDE1,1:R1-13:R2$$$V2.0
SMILES: CC[C@H](C)[C@@H]1NC(=O)[C@@H]2CCCN2C(=O)[C@@H]2CCCN2C(=O)[C@H](CC(=O)O)NC(=O)[C@H](CO)NC(=O)[C@H](CCCCN)NC(=O)[C@H]([C@@H](C)O)NC(=O)[C@@H]2CSSC[C@H](NC1=O)C(=O)N[C@@H](Cc1ccc(O)cc1)C(=O)N1CCC[C@@H]1C(=O)N1CCC[C@H]1C(=O)N[C@@H](Cc1ccc(N)cc1)C(=O)N2
B12: Example 61 (peptide)
peptide: WCTKSDPPICS
HELM: PEPTIDE1{W.C.T.K.S.D.P.P.I.C.S.[dP].P}$PEPTIDE1,PEPTIDE1,2:R3-10:R3|PEPTIDE1,PEPTIDE1,1:R1-13:R2$$$V2.0
SMILES: CC[C@H](C)[C@@H]1NC(=O)[C@@H]2CCCN2C(=O)[C@@H]2CCCN2C(=O)[C@H](CC(=O)O)NC(=O)[C@H](CO)NC(=O)[C@H](CCCCN)NC(=O)[C@H]([C@@H](C)O)NC(=O)[C@@H]2CSSC[C@H](NC1=O)C(=O)N[C@@H](CO)C(=O)N1CCC[C@@H]1C(=O)N1CCC[C@H]1C(=O)N[C@@H](Cc1c[nH]c3ccccc13)C(=O)N2
B13: Example 33 (peptide)
peptide: XCTKSDPPICN
HELM: PEPTIDE1{[Cha].C.T.K.S.D.P.P.I.C.N.[dP].P}$PEPTIDE1,PEPTIDE1,2:R3-10:R3|PEPTIDE1,PEPTIDE1,1:R1-13:R2$$$V2.0
SMILES: CC[C@H](C)[C@@H]1NC(=O)[C@@H]2CCCN2C(=O)[C@@H]2CCCN2C(=O)[C@H](CC(=O)O)NC(=O)[C@H](CO)NC(=O)[C@H](CCCCN)NC(=O)[C@H]([C@@H](C)O)NC(=O)[C@@H]2CSSC[C@H](NC1=O)C(=O)N[C@@H](CC(N)=O)C(=O)N1CCC[C@@H]1C(=O)N1CCC[C@H]1C(=O)N[C@@H](CC1CCCCC1)C(=O)N2

Target: T1, CathepsinG, from human neutrophils
Experiment: cell-based or functional assay

| IC50 | Binder |
| --- | --- |
| 69 nmol | B1 |
| 69 nmol | B2 |
| 48 nmol | B3 |
| 48 nmol | B4 |
| 42 nmol | B5 |
| 68 nmol | cyclo(FCTKSDPPICS[dN]P) (disulfide 2-10) [Example 69] |
| 56 nmol | B6 |
| 47 nmol | B7 |
| 77 nmol | B8 |
| 54 nmol | B9 |
| 49 nmol | B10 |
| 52 nmol | B11 |
| 48 nmol | cyclo([Chg]CTK[AlloThr]DPPYCY[dP]P) (disulfide 2-10) [Example 67] |
| 72 nmol | B12 |
| 45 nmol | B13 |
